Experimental data: patent US6290951A, “Alteration of the cell cycle in vivo, and particularly for inducing apoptosis of tumor cells” (Alfacell Corporation, priority 1998, dated 2001)
Square brackets hold non-standard residues; d marks the D form. Peptide text beside a SMILES is read from it. Nle = CCCC[C@H](N)C(=O)O

Columns and labels:
[1] = tested on: A-549 human lung carcinoma; assay: MTT assay, A-549 cells
[2] = tested on: DU-145 human prostate carcinoma; assay: MTT assay, DU-145 cells
[3] = tested on: proteasome; details: Proc Natl Acad Sci USA 94:855-860, 1997; cited from earlier work
[4] = tested on: MDA-MB-231 human breast carcinoma; assay: MTT assay, MDA-MB-231 cells
[5] = tested on: HL-60 tumor cells; details: proliferating HL-60 tumor cells; background art; cited from earlier work
[6] = A-549 cells, 10 μM LLnL with 0.1 to 1.0 μg/mL ranpirnase

For `CC(=O)N[C@@H](CC(C)C)C(=O)N[C@H](C(=O)N[C@H](C=O)Cc1ccccc1)C(C)C` [LVP, N-acetyl-leucinyl-valinyl-phenylalaninal, reference compound], the “augmentation of the anti-tumor activity of ranpirnase” value ([1]; A-549 cell line, peptide aldehyde added to ranpirnase) was “augmented” and the “augmentation of the anti-tumor activity of ranpirnase” value ([2]; DU-145 cell line, peptide aldehyde added to ranpirnase) was “augmented”.

In the case of `CSCC[C@@H](C=O)NC(=O)[C@H](CC(C)C)NC(=O)[C@H](CC(C)C)NC(C)=O` [LLM, N-acetyl-leucinyl-leucinyl-methioninal, reference compound] (Ac-Leu-Leu-Met-aldehyde), the “inhibition of the activity of proteasome” value [3] is listed as “does not significantly inhibit” and the “effect on growth and viability versus untreated controls” value ([4]; MDA-MB-231 cells, 25 μM LLM alone) is listed as “no significant effect”.

For `CCCC[C@@H](C=O)NC(=O)[C@H](CC(C)C)NC(=O)[C@H](CC(C)C)NC(C)=O` [LLnL, N-acetyl-leucinyl-leucinyl-norleucinal] (Ac-Leu-Leu-[Nle]-aldehyde), the cell cycle arrest [5] is listed as “arrested the HL-60 cells in the G1 phase”.

With `COc1cccc2c1C(=O)c1c(O)c3c(c(O)c1C2=O)C[C@@](O)(C(=O)CO)C[C@@H]3O[C@H]1C[C@H](N)[C@H](O)[C@H](C)O1` [doxorubicin, reference compound] the “effect of adding doxorubicin on cell growth or cell viability” value ([4]; MDA-MB-231 cells, ranpirnase plus 0.1 μg/mL doxorubicin plus 15 μM LLnL versus ranpirnase plus LLnL) was “did not significantly decrease”.

For `CC(=O)N[C@@H](CC(=O)O)C(=O)N[C@@H](CCC(=O)O)C(=O)N[C@H](C(=O)N[C@H](C=O)CC(=O)O)C(C)C` [Ac-DEVD-cho, N-acetyl-L-aspartyl-L-glutamyl-L-valinyl-L-aspartal, reference compound], the “increase of viability of cells versus LLnL alone” value ([2]; DU-145 cells treated with LLnL, without ranpirnase, Ac-DEVD-cho 50 μpM) was “approximately 4 fold” and the “increase of viability of cells” value ([2]; DU-145 cells treated with ranpirnase and 25 μpM LLnL, Ac-DEVD-cho 50 μpM) was 2- to 3 fold.

B1: ranpirnase: USAN generic name of the pharmaceutical described in U.S. Pat. No. 5,559,212, known by the registered trademark ONCONASE (protein, UniProt P22069 1-104, looked up)
Protein P-30: QDWLTFQKKHITNTRDVDCDNIMSTNLFHCKDKNTFIYSRPEPVKAICKGIIASKNVLTTSEFYLSDCNVTSRPCKYKLKKSTNKFCVTCENQAPVHFVGVGSC
In the case of B1, the “interaction of ranpirnase and LLnL” value ([1]; A-549 cell line) is reported as “synergistically”, the “anti-tumor activity of ranpirnase combined with LLnL versus each single agent (Newman-Keuls)” value ([1]; A-549 cells) is reported as “significantly greater” and the “effect of the combination versus ranpirnase alone” value [1, 6] is reported as “greater than the effect of ranpirnase alone”. The “interaction of ranpirnase and LLnL” value [1, 6] was “not synergistic”, the “interaction of ranpirnase and LLnL” value ([1]; A-549 cells, higher concentrations (15 to 35) μM of LLnL) was “synergistic” and the “mean ED50 value for ranpirnase” value ([1]; A-549 cells, in combination with 10 μM LLnL) was 1.356 µg/mL. The “mean ED50 value for ranpirnase” value ([1]; A-549 cells, in combination with 15 μM LLnL) was 0.640 µg/mL, the “mean ED50 value for ranpirnase” value ([1]; A-549 cells, in combination with 25 μM LLnL) was 0.060 µg/mL and the “mean ED50 value for ranpirnase” value ([1]; A-549 cells, in combination with 35 μM LLnL) was “less than 0.001 μg/mL”. For the same molecule, the “mean ED50 value for ranpirnase” value ([1]; A-549 cells, ranpirnase alone) was 3.944 µg/mL, the “interaction of ranpirnase and LLnL” value ([4]; MDA-MB-231 cell line) was “synergistically” and the “anti-tumor activity of ranpirnase combined with LLnL versus each single agent (Newman-Keuls)” value ([4]; MDA-MB-231 cells) was “significantly greater”. The “activity of combination of ranpirnase and LLM versus ranpirnase alone” value ([4]; MDA-MB-231 cells, 25 μM LLM) was “no significant difference”, the “decrease of mean ED50 value for ranpirnase” value ([4]; MDA-MB-231 cells, additional treatment with 25 μM LLM) was “approximately two-fold” and the “decrease of mean ED50 value for ranpirnase versus ranpirnase alone” value ([4]; MDA-MB-231 cells, in combination with 0.1 μg/mL (approximately 0.17 μM) doxorubicin) was 2.2 fold. For the same molecule, the “mean ED50 value for ranpirnase” value ([4]; MDA-MB-231 cells, in combination with 10 μM LLnL) was 0.037 µg/mL, the “mean ED50 value for ranpirnase” value ([4]; MDA-MB-231 cells, in combination with 15 μM LLnL) was 0.022 µg/mL and the “mean ED50 value for ranpirnase” value ([4]; MDA-MB-231 cells, in combination with 25 μM LLnL) was 0.001 µg/mL. The “interaction of ranpirnase with LLnL” value ([4]; MDA-MB-231 cells, ranpirnase 0.1 to 10.0 μg/mL, LLnL 5 to 25 μM (particularly 10 to 25 μM)) was “synergistically”, the “mean ED50 value for ranpirnase” value ([4]; MDA-MB-231 cells, ranpirnase alone) was 1.434 µg/mL and the “interaction of ranpirnase and LLnL” value ([2]; DU-145 cell line) was “synergistically”. The “anti-tumor activity of ranpirnase combined with LLnL versus each single agent (Newman-Keuls)” value ([2]; DU-145 cells) was “significantly greater”, the “interaction of ranpirnase with LLnL” value ([2]; DU-145 cells, all concentrations of ranpirnase, 10 to 25 μM LLnL) was “synergistic” and the “ED50 value for ranpirnase” value ([2]; DU-145 cells, combined with 10 μM LLnL) was 1.231 µg/mL. The “ED50 value for ranpirnase” value ([2]; DU-145 cells, combined with 15 μM LLnL) was 0.001 µg/mL, the “ED50 value for ranpirnase” value ([2]; DU-145 cells, combined with 25 μM LLnL) was under 0.001 µg/mL and the “ED50 value for ranpirnase” value ([2]; DU-145 cells, ranpirnase alone) was 42.276 µg/mL.
